Laboratory results: article PMC10786891, “Massively parallel profiling of RNA-targeting CRISPR-Cas13d”
Where a chain is given by its changes, count along the chain named. In names and notes the source's numbering stands.

B1: target 1 G5A,G13C (mixed)
RNA 1: CACCCGUGCAAAAAUGCAGGGGUCUAAAACUGAGCGGAUAACCUCUCUAUGG
RNA 2: GGGAAUGGAUCCACAUCUACGAAUUCGUACCAUAGAGACGUUAUCCACUCACCGAGAUCGGAAGAGCACACGU
B2: target 1 C7U,U11A (mixed)
RNA 1: B1 RNA 1
RNA 2: B1 RNA 2 with C39G, U41A, C45U, A47G
B3: target 1 insA 3' of 10,insA 3' of 5 (mixed)
RNA 1: B1 RNA 1
RNA 2: GGGAAUGGAUCCACAUCUACGAAUUCGUACCAUAGAGAGGUUAAUCCGACUCACCGAGAUCGGAAGAGCACACGU
B4: target 1 insC 3' of 11,insC 3' of 1 (mixed)
RNA 1: B1 RNA 1
RNA 2: B3 RNA 2 with U42C, A43U, A49C, C50U, U51C, C52A, A53C
B5: target 1 insC 3' of 18,insG 3' of 14 (mixed)
RNA 1: B1 RNA 1
RNA 2: GGGAAUGGAUCCACAUCUACGAAUUCGUACCAUACGAGAGGGUUAUCCGCUCACCGAGAUCGGAAGAGCACACGU
B6: target 1 A9C,A14G (mixed)
RNA 1: B1 RNA 1
RNA 2: B1 RNA 2 with A38G, C39G, A43C, A47G
B7: target 1 G12A,C22A (mixed)
RNA 1: B1 RNA 1
RNA 2: B1 RNA 2 with C30A, C39G, G40A, A47G
B8: target 1 A9G,A20C (mixed)
RNA 1: B1 RNA 1
RNA 2: B1 RNA 2 with A32C, C39G, A43G, A47G
B9: target 1 insC 3' of 11,insC 3' of 11 (mixed)
RNA 1: B1 RNA 1
RNA 2: B3 RNA 2 with U42C, A43C, A44U, U45A, C46U, G48C, A49G
B10: target 1 U8G,G12A (mixed)
RNA 1: B1 RNA 1
RNA 2: B1 RNA 2 with C39G, G40A, U44G, A47G
B11: target 1 A1G,C4A (mixed)
RNA 1: B1 RNA 1
RNA 2: B1 RNA 2 with C39G, A47G, C48A, A51G
B12: target 1 insC 3' of 20,insU 3' of 4 (mixed)
RNA 1: B1 RNA 1
RNA 2: GGGAAUGGAUCCACAUCUACGAAUUCGUACCACUAGAGAGGUUAUCCGCUUCACCGAGAUCGGAAGAGCACACGU
B13: target 1 insG 3' of 14,insA 3' of 10 (mixed)
RNA 1: B1 RNA 1
RNA 2: B3 RNA 2 with U41G, A43U, U45A, C46U, G48C, A49G
B14: target 1 insU 3' of 9,insC 3' of 5 (mixed)
RNA 1: B1 RNA 1
RNA 2: B3 RNA 2 with A44U, A49C
B15: target 1 C2G,A9G (mixed)
RNA 1: B1 RNA 1
RNA 2: B1 RNA 2 with C39G, A43G, A47G, C50G
B16: target 1 insC 3' of 9,insU 3' of 5 (mixed)
RNA 1: B1 RNA 1
RNA 2: B3 RNA 2 with A44C, A49U
B17: target 1 C4U,G13C (mixed)
RNA 1: B1 RNA 1
RNA 2: B1 RNA 2 with A47G, C48U
B18: target 1 A9G,A14G (mixed)
RNA 1: B1 RNA 1
RNA 2: B1 RNA 2 with A38G, C39G, A43G, A47G
B19: target 1 insU 3' of 18,insU 3' of 6 (mixed)
RNA 1: B1 RNA 1
RNA 2: B12 RNA 2 with C33U, U34A, A35U, G48U, C49G, U50C
B20: target 1 del5,del8 (mixed)
RNA 1: B1 RNA 1
RNA 2: GGGAAUGGAUCCACAUCUACGAAUUCGUACCAUAGAGAGGUUACCCUCACCGAGAUCGGAAGAGCACACGU
B21: target 1 insC 3' of 11,insG 3' of 1 (mixed)
RNA 1: B1 RNA 1
RNA 2: B3 RNA 2 with U42C, A43U, A49C, C50U, U51C, C52A, A53G
B22: target 1 G5U,A9G (mixed)
RNA 1: B1 RNA 1
RNA 2: B1 RNA 2 with C39G, A43G, A47U
B23: target 1 C2G,G5U (mixed)
RNA 1: B1 RNA 1
RNA 2: B1 RNA 2 with C39G, A47U, C50G
B24: target 1 U10A,A20C (mixed)
RNA 1: B1 RNA 1
RNA 2: B1 RNA 2 with A32C, C39G, U42A, A47G
B25: target 1 insC 3' of 12,insU 3' of 2 (mixed)
RNA 1: B1 RNA 1
RNA 2: B3 RNA 2 with U41C, A43U, A49C, C50U, U51C, C52U
B26: target 1 C4G,G12U (mixed)
RNA 1: B1 RNA 1
RNA 2: B1 RNA 2 with C39G, G40U, A47G, C48G
B27: target 1 insC 3' of 8,insC 3' of 8 (mixed)
RNA 1: B1 RNA 1
RNA 2: B3 RNA 2 with A44U, U45C, G48C, A49G
B28: target 1 insC 3' of 11,insU 3' of 1 (mixed)
RNA 1: B1 RNA 1
RNA 2: B3 RNA 2 with U42C, A43U, A49C, C50U, U51C, C52A, A53U
B29: target 1 insG 3' of 11,insC 3' of 9 (mixed)
RNA 1: B1 RNA 1
RNA 2: B3 RNA 2 with U42G, A43U, U45C, C46U, G48C, A49G
B30: target 1 insG 3' of 19,insA 3' of 17 (mixed)
RNA 1: B1 RNA 1
RNA 2: B5 RNA 2 with A34G, C35A, G38A, A39G, G40A

Target: T1, EsCas13d, nuclease-dead (Eubacterium siraeum, UniProt B0MS50, R295A;H300A;R849A;H854A)
T1 sequence: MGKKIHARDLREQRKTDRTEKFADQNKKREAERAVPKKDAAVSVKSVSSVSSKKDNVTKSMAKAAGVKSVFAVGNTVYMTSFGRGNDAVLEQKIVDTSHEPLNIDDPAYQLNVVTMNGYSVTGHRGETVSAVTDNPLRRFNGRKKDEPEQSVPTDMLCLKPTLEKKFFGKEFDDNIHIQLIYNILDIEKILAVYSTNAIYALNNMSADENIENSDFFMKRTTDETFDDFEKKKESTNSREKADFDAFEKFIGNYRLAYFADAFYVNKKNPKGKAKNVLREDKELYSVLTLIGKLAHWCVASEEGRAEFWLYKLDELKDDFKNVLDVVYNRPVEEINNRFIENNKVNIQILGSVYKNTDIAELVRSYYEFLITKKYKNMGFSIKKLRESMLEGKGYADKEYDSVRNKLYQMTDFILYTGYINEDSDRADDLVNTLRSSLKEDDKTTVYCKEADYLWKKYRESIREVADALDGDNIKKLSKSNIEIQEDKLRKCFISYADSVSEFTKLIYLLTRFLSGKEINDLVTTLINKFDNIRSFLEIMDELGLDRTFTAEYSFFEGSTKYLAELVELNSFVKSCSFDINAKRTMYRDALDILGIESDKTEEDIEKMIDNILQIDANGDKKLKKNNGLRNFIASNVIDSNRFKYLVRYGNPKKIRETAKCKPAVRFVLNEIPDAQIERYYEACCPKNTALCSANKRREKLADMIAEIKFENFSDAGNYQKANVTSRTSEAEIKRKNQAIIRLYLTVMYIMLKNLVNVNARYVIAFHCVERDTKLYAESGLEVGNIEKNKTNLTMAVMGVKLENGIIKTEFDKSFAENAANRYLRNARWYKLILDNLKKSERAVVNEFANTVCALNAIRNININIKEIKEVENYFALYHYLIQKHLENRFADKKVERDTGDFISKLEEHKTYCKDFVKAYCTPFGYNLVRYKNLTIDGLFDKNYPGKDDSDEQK
Assay: crRNA (strand 1, pre-loaded); Mg2+; 40 mM Tris-HCl pH 7.5, 150 mM NaCl, 6 mM MgCl2, 1 mM DTT, 0.1% Tween-20, 0.2 mg/ml BSA; 25 C; 10 min per concentration, then washed
Conditions: tags: His6-TwinStrep-SUMO cleaved; N-terminal SNAP kept (SNAP-Surface 488); label: 3' end held by stalled T7 RNA polymerase

Row | Binder | Kd
1 | B1 | 50 ± 7 nM
2 | B2 | 32.7 ± 2.9 nM
3 | B3 | 5.79 ± 0.32 nM
4 | B4 | 26.2 ± 1.7 nM
5 | B5 | 47.4 ± 3 nM
6 | B6 | 29.5 ± 2.4 nM
7 | B7 | 13 ± 0.9 nM
8 | B8 | 54 ± 15 nM
9 | B9 | 35 ± 7 nM
10 | B10 | 12.9 ± 1.4 nM
11 | B11 | 4.5 ± 0.4 nM
12 | B12 | 9.1 ± 0.5 nM
13 | B13 | 30.3 ± 2.3 nM
14 | B14 | 12.9 ± 1.3 nM
15 | B15 | 9.1 ± 0.4 nM
16 | B16 | 7.39 ± 0.32 nM
17 | B17 | 50 ± 10 nM
18 | B18 | 14.4 ± 0.7 nM
19 | B19 | 40.4 ± 2.6 nM
20 | B20 | 18 ± 0.8 nM
21 | B21 | 35 ± 9 nM
22 | B22 | 27.2 ± 1.8 nM
23 | B23 | 22.1 ± 1.4 nM
24 | B24 | 48 ± 4 nM
25 | B25 | 12.2 ± 0.8 nM
26 | B26 | 9.5 ± 1.6 nM
27 | B27 | 14.5 ± 0.7 nM
28 | B28 | 35 ± 8 nM
29 | B29 | 31.4 ± 2.2 nM
30 | B30 | 73 ± 12 nM
